From the supplement of paper PMC7877785
± gives the uncertainty stated by the source.

Test: self-splicing fitness, log relative to wild type (ln ratio); higher = more splicing; Tetrahymena group I intron in knt gene, E. coli kanamycin selection, DiMSum; sequences stand for … in CUCUCU…GGAGGGAAAAGUUAUCAGGCAUGCACCUGGUAGCUAGUCUUUAAACCAAUAGAUUGCAUCGGUUUAAAAGGCAAGACCGUCAAAUUGCGGGAAAGGGGUCAACAGCCGUUCAGUACCAAGUCUCAGGGGAAACUUUGAGAUGGCCUUGCAAAGGGUAUGGUAAUAAGCUGACGGACAUGGUCCUAACCACGCAGCCAAGUCCUAAGUCAACAGAUCUUCUGUUGAUAUGGAUGCAGUUCACAGACUAAAUGUCGGUCGGGGAAGAUGUAUUCUUCUCAUAAGAUAUAGUCGGACCUCUCCUUAAUGGGAGCUAGCGGAUGAAGUGAUGCAACACUGGAGCCGCUGGGAACUAAUUUGUAUGCGAAAGUAUAUUGAUUAGUUUUGGAGUACUCGUGGUCG
Procedure, shortened: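 The eight P1ex-region nucleotides of an intron in the knt kanamycin-resistance gene on pET-22b(+) were all randomised and the library put into E. coli BL21(DE3). Six replicate transformations were grown overnight at 37°C or 30°C on LB agar with or without 25 μg/mL kanamycin, together with 100 μg/mL carbenicillin, 50 μM IPTG and 0.2% rhamnose. Colonies were pooled and amplicon-sequenced on an Illumina HiSeq 2500. Fitness from DiMSum is the error-weighted combination of wild-type-normalised replicate fold changes, kanamycin over none.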

| Sequence | self-splicing fitness (ln) (30 °C) | self-splicing fitness (ln) (37 °C) |
| --- | --- | --- |
| CGCCAGCAAUAUUACGCGGG | -4.25 ± 0.2 | -3.11 ± 0.24 |
| CGCCAGCAAUAUUACGGACU | -0.845 ± 0.066 | 0.157 ± 0.091 |
| CGCCAGCAAUAUUACGGGCA | -0.258 ± 0.095 | 0.189 ± 0.095 |
| CGCCAGCAAUAUUACGGGGG | -3 ± 0.16 | -2.17 ± 0.2 |
| CGCCAGCAAUAUUACGGUAC | -2.83 ± 0.095 | -1.52 ± 0.091 |
| CGCCAGCAAUAUUACGUAGC | -2.36 ± 0.17 | -3.11 ± 0.33 |
| CGCCAGCAAUAUUACGUAUG | -0.516 ± 0.055 | -0.0225 ± 0.074 |
| CGCCAGCAAUAUUACGUUGA | -2.84 ± 0.11 | -2.83 ± 0.13 |
| CGCCAGCAAUAUUACGUUGU | -3.62 ± 0.14 | -3.07 ± 0.15 |
| CGCGAGCAAUAUUACGAAUG | -1.9 ± 0.095 | -0.424 ± 0.13 |
| CGCGAGCAAUAUUACGAGCC | -3.49 ± 0.32 | -1.4 ± 0.28 |
| CGCGAGCAAUAUUACGAGGU | -2.22 ± 0.25 | -1.93 ± 0.23 |
| CGCGAGCAAUAUUACGAGUC | -2.7 ± 0.38 | -1.57 ± 0.29 |
| CGCGAGCAAUAUUACGAUGA | -3.39 ± 0.32 | -1.7 ± 0.18 |
| CGCGAGCAAUAUUACGAUUU | -3.35 ± 0.21 | -3.39 ± 0.24 |
| CGCGAGCAAUAUUACGCCGU | -3.93 ± 0.47 | -3.01 ± 0.4 |
| CGCGAGCAAUAUUACGCGAG | -3.97 ± 0.37 | -2.01 ± 0.41 |
| CGCGAGCAAUAUUACGCGUG | -2.29 ± 0.14 | -2.67 ± 0.15 |
| CGCGAGCAAUAUUACGCGUU | -3.07 ± 0.25 | -2.74 ± 0.34 |

| Sequence | self-splicing fitness (ln) (30 °C) | self-splicing fitness (ln) (37 °C) |
| --- | --- | --- |
| CGCGAGCAAUAUUACGCUGA | -2.03 ± 0.22 | -1.78 ± 0.35 |
| CGCGAGCAAUAUUACGGAUA | -1.66 ± 0.27 |  |
| CGCGAGCAAUAUUACGGCAU | -2.86 ± 0.17 | -1.43 ± 0.12 |
| CGCGAGCAAUAUUACGGCUA | -1.23 ± 0.15 | -1.98 ± 0.16 |
| CGCGAGCAAUAUUACGGGAU | -4.13 ± 0.23 | -2.59 ± 0.21 |
| CGCGAGCAAUAUUACGUCUG | -0.412 ± 0.067 | -0.178 ± 0.073 |
| CGCGAGCAAUAUUACGUGGA | -2.79 ± 0.16 | -3.01 ± 0.34 |
| CGCGAGCAAUAUUACGUGUU | -3.1 ± 0.15 | -2.75 ± 0.17 |
| CGCGAGCAAUAUUACGUUGG | -3.22 ± 0.17 | -2 ± 0.2 |
| CGCGAGCAAUAUUACGUUUC | -4.02 ± 0.27 | -2.06 ± 0.25 |
| CGCGAGCAAUAUUACGUUUU | -4.56 ± 0.46 | -2.17 ± 0.2 |
| CGCUAGCAAUAUUACGAACG | -2.16 ± 0.099 | -1.1 ± 0.11 |
| CGCUAGCAAUAUUACGAAUU | -2.77 ± 0.16 | -2.58 ± 0.28 |
| CGCUAGCAAUAUUACGACAC | -3.1 ± 0.23 | -1.33 ± 0.21 |
| CGCUAGCAAUAUUACGACUU | -2.41 ± 0.12 | -0.983 ± 0.15 |
| CGCUAGCAAUAUUACGAGUG | -2.91 ± 0.16 | -3.22 ± 0.17 |
| CGCUAGCAAUAUUACGAUAC | -3.07 ± 0.21 | -2.31 ± 0.16 |
| CGCUAGCAAUAUUACGAUCU | -0.867 ± 0.1 | -1.49 ± 0.11 |
| CGCUAGCAAUAUUACGCAUG | -2.04 ± 0.12 | -1.24 ± 0.16 |
